{
  "source": "the RNAGym collection of RNA variant scans (doi:10.1073/pnas.2313332121)",
  "parents": {"B1": {"name": "TPR 5TU (parent)", "chain": "GGAUCUUCUCGAUCUAACAAAAAAGACAAAUCUGCCACAAAGCUUGAGAGCAUCUUCGGAUGCAGAGGCGGCAGCCUUCGGUGGCGCGAUAGCGCCAACGUUCUCAACUAUGACACGCAAAACGCGUGCUCCGUUGAAUGGAGUUUAUCAUG"}},
  "note": "Variants at the floor of the assay were thinned out.",
  "data": [
    {"variants_of": "B1", "assay": "polymerase ribozyme fitness, log enrichment relative to wild type (log ratio); higher = more active; in vitro selection for triplet polymerase activity", "procedure,_shortened": "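Fitness measures genotype enrichment against wild-type enrichment on a logarithmic scale, with inverse-variance-weighted averaging of replicates. The logarithm is base 2, and genotypes were kept only with ≥10 input reads and ≥1 read per output in Illumina sequencing. The sequenced libraries came from one triplicate in vitro selection round, including frozen incubation at −7 °C, of PCR-built, transcribed mutant libraries of each subunit of a heterodimeric triplet polymerase ribozyme.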", "values": [
      {"variant": "C95A C96A C116U", "polymerase ribozyme fitness (log ratio)": -0.649},
      {"variant": "G94A A106G C131G", "polymerase ribozyme fitness (log ratio)": "≤ -4.2"},
      {"variant": "C96A A115U A147C", "polymerase ribozyme fitness (log ratio)": -3.48},
      {"variant": "C93U C103U A107C C125A", "polymerase ribozyme fitness (log ratio)": "≤ -4.2"},
      {"variant": "G92U C118A", "polymerase ribozyme fitness (log ratio)": -1.05},
      {"variant": "C93G A107G", "polymerase ribozyme fitness (log ratio)": "≤ -4.2"},
      {"variant": "G92U U101A A119U G143U", "polymerase ribozyme fitness (log ratio)": -3.62},
      {"variant": "C93U C99G G136A", "polymerase ribozyme fitness (log ratio)": -0.753},
      {"variant": "G94A C105U C116U C125G", "polymerase ribozyme fitness (log ratio)": -0.0334},
      {"variant": "C93U C99A", "polymerase ribozyme fitness (log ratio)": -3.72},
      {"variant": "C93U C99U", "polymerase ribozyme fitness (log ratio)": -2.8},
      {"variant": "C93U C99G", "polymerase ribozyme fitness (log ratio)": -1.97},
      {"variant": "G92U A138C", "polymerase ribozyme fitness (log ratio)": -3.95},
      {"variant": "C96G", "polymerase ribozyme fitness (log ratio)": -0.496},
      {"variant": "C96A", "polymerase ribozyme fitness (log ratio)": -0.52},
      {"variant": "C93A A107U A110G C114U U127G", "polymerase ribozyme fitness (log ratio)": "≤ -4.2"},
      {"variant": "G94U G128U U139A G141A", "polymerase ribozyme fitness (log ratio)": "≤ -4.2"},
      {"variant": "C93G A142U", "polymerase ribozyme fitness (log ratio)": -3.03},
      {"variant": "C93G A142C", "polymerase ribozyme fitness (log ratio)": -4.02},
      {"variant": "C96G A107G", "polymerase ribozyme fitness (log ratio)": "≤ -4.2"},
      {"variant": "C93A C116U", "polymerase ribozyme fitness (log ratio)": -1.88},
      {"variant": "C95U U145A", "polymerase ribozyme fitness (log ratio)": 0.0594},
      {"variant": "C93G U145G", "polymerase ribozyme fitness (log ratio)": -2.53},
      {"variant": "C93A G117U", "polymerase ribozyme fitness (log ratio)": -1.92},
      {"variant": "C93U A150G", "polymerase ribozyme fitness (log ratio)": -1.93},
      {"variant": "C93U U144G", "polymerase ribozyme fitness (log ratio)": -0.253},
      {"variant": "C93U U144C", "polymerase ribozyme fitness (log ratio)": -1.07},
      {"variant": "G92U G124U G141C", "polymerase ribozyme fitness (log ratio)": -0.283},
      {"variant": "C93U G143C", "polymerase ribozyme fitness (log ratio)": -3.12},
      {"variant": "C93U A119G G143U U145G", "polymerase ribozyme fitness (log ratio)": -3.92},
      {"variant": "C93U G136A", "polymerase ribozyme fitness (log ratio)": -1.1},
      {"variant": "C93U G136C", "polymerase ribozyme fitness (log ratio)": -4.02},
      {"variant": "C93A C103G", "polymerase ribozyme fitness (log ratio)": -3.88},
      {"variant": "G92U U145A", "polymerase ribozyme fitness (log ratio)": 0.602},
      {"variant": "C93G U101C", "polymerase ribozyme fitness (log ratio)": -3.2},
      {"variant": "C93U U135A", "polymerase ribozyme fitness (log ratio)": -2.01},
      {"variant": "C93U U135C", "polymerase ribozyme fitness (log ratio)": -2.76},
      {"variant": "C93U C118A C125A U139C", "polymerase ribozyme fitness (log ratio)": -4.16},
      {"variant": "G94A U151A", "polymerase ribozyme fitness (log ratio)": "≤ -4.2"},
      {"variant": "G92U A107U", "polymerase ribozyme fitness (log ratio)": -3.2},
      {"variant": "C93A C96A", "polymerase ribozyme fitness (log ratio)": -3.78},
      {"variant": "C93A C96U", "polymerase ribozyme fitness (log ratio)": -3.3},
      {"variant": "G94C A97U", "polymerase ribozyme fitness (log ratio)": -2.45},
      {"variant": "C93A A121C U148C", "polymerase ribozyme fitness (log ratio)": -2.37},
      {"variant": "C96A A142U", "polymerase ribozyme fitness (log ratio)": -1.24},
      {"variant": "C95U C105G", "polymerase ribozyme fitness (log ratio)": -0.337},
      {"variant": "C95U G141A", "polymerase ribozyme fitness (log ratio)": 0.432},
      {"variant": "C93U A115U A120G", "polymerase ribozyme fitness (log ratio)": -2.4},
      {"variant": "G92U C108U C125G G140C", "polymerase ribozyme fitness (log ratio)": "≤ -4.2"},
      {"variant": "C93G C123U G141U", "polymerase ribozyme fitness (log ratio)": -2.27},
      {"variant": "G92U U104G C132U", "polymerase ribozyme fitness (log ratio)": -2.5},
      {"variant": "G92U A115C A119U G140C", "polymerase ribozyme fitness (log ratio)": "≤ -4.2"},
      {"variant": "G94C A97U G136C", "polymerase ribozyme fitness (log ratio)": -3.35},
      {"variant": "C95U A150G", "polymerase ribozyme fitness (log ratio)": -2.25},
      {"variant": "G92U C96A G136C", "polymerase ribozyme fitness (log ratio)": -3.56},
      {"variant": "G94C U104G", "polymerase ribozyme fitness (log ratio)": -1.24},
      {"variant": "C95U C116A C129G U148G", "polymerase ribozyme fitness (log ratio)": "≤ -4.2"},
      {"variant": "C93U A110G", "polymerase ribozyme fitness (log ratio)": -3.25},
      {"variant": "C93U A110U", "polymerase ribozyme fitness (log ratio)": -4.1},
      {"variant": "C96A G152U", "polymerase ribozyme fitness (log ratio)": -2.51},
      {"variant": "C95U A98C", "polymerase ribozyme fitness (log ratio)": -1},
      {"variant": "C95U A98G", "polymerase ribozyme fitness (log ratio)": -1.9},
      {"variant": "C95U A147U", "polymerase ribozyme fitness (log ratio)": 0.673},
      {"variant": "C95U C125U A142C", "polymerase ribozyme fitness (log ratio)": -3.48},
      {"variant": "G94A C116G C123G", "polymerase ribozyme fitness (log ratio)": 0.258},
      {"variant": "G92U G141C", "polymerase ribozyme fitness (log ratio)": -1.87},
      {"variant": "G92U G141A", "polymerase ribozyme fitness (log ratio)": -1.81},
      {"variant": "C93U A97C G140A", "polymerase ribozyme fitness (log ratio)": "≤ -4.2"},
      {"variant": "C93U C103A C105U A120G U134C", "polymerase ribozyme fitness (log ratio)": -3.94},
      {"variant": "C96A C105U", "polymerase ribozyme fitness (log ratio)": 0.343},
      {"variant": "C96A C105G", "polymerase ribozyme fitness (log ratio)": -1.4},
      {"variant": "C96G A98G G124A", "polymerase ribozyme fitness (log ratio)": -1.82},
      {"variant": "C93U G94U", "polymerase ribozyme fitness (log ratio)": -1.43},
      {"variant": "C95A C96A", "polymerase ribozyme fitness (log ratio)": -2.33},
      {"variant": "G92U C93U", "polymerase ribozyme fitness (log ratio)": -2.13},
      {"variant": "G92U G94C A106G C123A U145C", "polymerase ribozyme fitness (log ratio)": -1.97},
      {"variant": "C95A G140A", "polymerase ribozyme fitness (log ratio)": -2.71},
      {"variant": "C93U A98G", "polymerase ribozyme fitness (log ratio)": -1.59},
      {"variant": "G94C U134G U135C", "polymerase ribozyme fitness (log ratio)": "≤ -4.2"},
      {"variant": "G94C U101A G152A", "polymerase ribozyme fitness (log ratio)": -2.72},
      {"variant": "C93A A98G", "polymerase ribozyme fitness (log ratio)": -1.81},
      {"variant": "C95U C123U", "polymerase ribozyme fitness (log ratio)": 0.509},
      {"variant": "G94U C96U", "polymerase ribozyme fitness (log ratio)": -0.719}
    ]}
  ]
}
